This is an account of results in article PMC2172679.

The target of the assay is p150^Glued subunit of dynactin (endogenous in melanophore extracts) (Xenopus laevis (endogenous in melanophores)) (UniProt Q6PCJ1). The experiment in a line: co-IP.
UniProt Q6PCJ1, sequence (Q6PCJ1 whole entry): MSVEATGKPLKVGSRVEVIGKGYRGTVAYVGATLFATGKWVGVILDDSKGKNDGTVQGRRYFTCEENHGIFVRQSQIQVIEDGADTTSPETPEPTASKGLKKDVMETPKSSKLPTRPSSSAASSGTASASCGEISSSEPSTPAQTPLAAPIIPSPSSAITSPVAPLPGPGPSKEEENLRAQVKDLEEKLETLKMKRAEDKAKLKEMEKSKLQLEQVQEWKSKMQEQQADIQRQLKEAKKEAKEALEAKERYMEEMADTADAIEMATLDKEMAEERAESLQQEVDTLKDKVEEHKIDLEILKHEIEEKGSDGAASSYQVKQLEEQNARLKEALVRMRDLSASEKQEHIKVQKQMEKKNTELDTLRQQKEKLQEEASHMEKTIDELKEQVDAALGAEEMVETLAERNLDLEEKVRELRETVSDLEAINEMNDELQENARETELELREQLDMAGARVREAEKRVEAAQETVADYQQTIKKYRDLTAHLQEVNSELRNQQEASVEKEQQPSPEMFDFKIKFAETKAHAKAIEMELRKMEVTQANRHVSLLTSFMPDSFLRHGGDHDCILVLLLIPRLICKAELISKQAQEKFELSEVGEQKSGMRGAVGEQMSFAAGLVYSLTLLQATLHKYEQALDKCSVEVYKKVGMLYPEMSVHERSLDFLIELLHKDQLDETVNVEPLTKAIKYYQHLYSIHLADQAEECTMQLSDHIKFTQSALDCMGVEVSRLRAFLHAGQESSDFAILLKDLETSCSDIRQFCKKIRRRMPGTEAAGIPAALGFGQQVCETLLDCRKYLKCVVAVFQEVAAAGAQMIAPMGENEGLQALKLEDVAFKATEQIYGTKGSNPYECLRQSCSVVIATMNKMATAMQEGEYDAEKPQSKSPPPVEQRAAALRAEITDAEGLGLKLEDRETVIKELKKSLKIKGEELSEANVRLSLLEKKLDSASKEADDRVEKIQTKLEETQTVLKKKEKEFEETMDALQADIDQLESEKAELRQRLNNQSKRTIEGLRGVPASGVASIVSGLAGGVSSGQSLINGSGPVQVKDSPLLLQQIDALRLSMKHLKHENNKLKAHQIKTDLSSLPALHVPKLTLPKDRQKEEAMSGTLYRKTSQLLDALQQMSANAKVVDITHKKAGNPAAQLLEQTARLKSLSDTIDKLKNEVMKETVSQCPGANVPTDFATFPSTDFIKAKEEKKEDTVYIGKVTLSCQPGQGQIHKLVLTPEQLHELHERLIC

“kinesin II (Xenopus, endogenous in melanophore extracts) (complex)” displayed a percent of the total pool co-precipitated of 1%.
